The values below come from publication PMC10464462.

The target of the test is His-E-cadherin fusion protein (UniProt P12830). Put plainly: MST; RED-NHS-labelled His-E-cadherin at constant concentration (1 µM) with 2-fold serial dilutions of GST-KRT18 in MST-optimized buffer; 15 min at room temperature; Monolith NT.115; 20 and 40% MST power.

One may read the Kd as the constant that tells how readily two partners part at equilibrium.

Sequence of UniProt P12830 (P12830 155-882): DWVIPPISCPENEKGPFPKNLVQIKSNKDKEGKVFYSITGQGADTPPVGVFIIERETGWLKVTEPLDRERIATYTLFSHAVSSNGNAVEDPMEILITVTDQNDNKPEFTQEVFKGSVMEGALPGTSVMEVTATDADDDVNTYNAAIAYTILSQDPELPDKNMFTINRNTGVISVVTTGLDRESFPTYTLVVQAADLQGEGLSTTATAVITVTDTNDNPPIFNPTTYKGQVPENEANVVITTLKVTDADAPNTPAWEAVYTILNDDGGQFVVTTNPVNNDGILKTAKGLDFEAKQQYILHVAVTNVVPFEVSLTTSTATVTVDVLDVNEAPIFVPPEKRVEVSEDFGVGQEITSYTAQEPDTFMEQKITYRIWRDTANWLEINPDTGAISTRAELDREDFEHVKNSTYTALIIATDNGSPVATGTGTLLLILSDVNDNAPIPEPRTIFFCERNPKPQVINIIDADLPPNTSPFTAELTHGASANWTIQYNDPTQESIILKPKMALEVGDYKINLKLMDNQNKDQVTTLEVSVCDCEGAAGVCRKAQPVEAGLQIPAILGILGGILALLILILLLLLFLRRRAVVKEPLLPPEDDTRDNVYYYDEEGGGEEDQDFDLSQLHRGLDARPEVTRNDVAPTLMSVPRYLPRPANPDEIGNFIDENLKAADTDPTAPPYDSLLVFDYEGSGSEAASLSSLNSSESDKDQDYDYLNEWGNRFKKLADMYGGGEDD

B1: GST-KRT18 fusion protein (natural protein)
chain: MSFTTRSTFSTNYRSLGSVQAPSYGARPVSSAASVYAGAGGSGSRISVSRSTSFRGGMGSGGLATGIAGGLAGMGGIQNEKETMQSLNDRLASYLDRVRSLETENRRLESKIREHLEKKGPQVRDWSHYFKIIEDLRAQIFANTVDNARIVLQIDNARLAADDFRVKYETELAMRQSVENDIHGLRKVIDDTNITRLQLETEIEALKEELLFMKKNHEEEVKGLQAQIASSGLTVEVDAPKSQDLAKIMADIRAQYDELARKNREELDKYWSQQIEESTTVVTTQSAEVGAAETTLTELRRTVQSLEIDLDSMRNLKASLENSLREVEARYALQMEQLNGILLHLESELAQTRAEGQRQAQEYEALLNIKVKLEAEIATYRRLLEDGEDFNLGDALDSSNSMQTIQKTTTRRIVDGKVVSETNDTKVLRH
In the case of B1, the Kd was determined as 5.6 µM.
